Measured values reported in patent US20100279930A1 (published 2010).
Like-named read-outs stand apart in the source and are kept apart here. No end group written: not given here.

Legend:
Test in all cases: 125I-PP displacement
[1] = biological target: T1, human Y4 receptor (human, UniProt P50391 1-375)
[2] = biological target: T1, human Y4 receptor; remark: listed apart in the source
[3] = biological target: T1, human Y4 receptor; remark: listed apart in the source
[4] = biological target: T1, human Y4 receptor; remark: listed apart in the source
[5] = biological target: T1, human Y4 receptor; remark: listed apart in the source

T1 sequence (P50391 whole entry): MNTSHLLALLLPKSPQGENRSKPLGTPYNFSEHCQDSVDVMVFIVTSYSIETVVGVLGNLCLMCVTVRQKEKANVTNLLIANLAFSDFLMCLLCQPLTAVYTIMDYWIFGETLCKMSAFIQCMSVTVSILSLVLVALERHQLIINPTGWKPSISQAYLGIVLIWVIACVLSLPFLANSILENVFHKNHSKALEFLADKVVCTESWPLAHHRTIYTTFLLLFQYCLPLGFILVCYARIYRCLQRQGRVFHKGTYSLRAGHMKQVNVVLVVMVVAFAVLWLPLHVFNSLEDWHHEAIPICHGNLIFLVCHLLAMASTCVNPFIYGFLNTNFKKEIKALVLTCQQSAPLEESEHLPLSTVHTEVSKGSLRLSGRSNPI

IC50 [1] [nM] | IC50 [3] [nM] | Binder | also measured
0.052 |  | GAPLEPKYPGDNATPEEKAKYAAELRRYINKLTRPRY [4061236] | 
0.16 |  | PAPLEPKYPGDNATPEEMAKYAAELRRYIDKLTRPRY [4061237] | 
0.054 |  | PAPLEPKYPGDNATPEEKAKYAAELRRYINKLTRPRY [4061235] | 
0.059 |  | PAPLEPKYPGDNATPEQMAKYAAELRRYINKLTRPRY [4068672] | 
0.138 |  | GAPLEPKYPGDNATPEEMAKYAAELRRYIDKLTRPRY [4061238] | 
0.054 |  | PAPLEPTYPGDNATPEEKAKYYSELRRYINKLTRPRY [4061239] | 
 |  | GAPLEPKYPGDNATPEEMAKYAAELRRYINKLTRPRY [4058911] | IC50 [2]: 0.077 nM
0.145 |  | PLEPHYPGDDATPQQMAHYYSELRRYINKLTRPRY [4457895] | 
 |  | PLEPSYPGDNATPEQLAKYAAELRRYINKLTRPRY [4058912] | IC50 [2]: 0.0495 nM
 |  | APLEPSYPGDNATPEQLAKYAAELRRYINKLTRPRY [4058913] | IC50 [2]: 0.0775 nM
 | 0.22 | APLEPVYPGDNATPEQMAQYAADLRRYINILTRPRY (ends and bridges not checked) [compound of SEQ ID NO:259 (code 4055713)] | 
 | 0.16 | APLEPVYPGDNATPEQMAQYAADLRRYINKLTRPRY [compound of SEQ ID NO:281 (Lys 30, code 4055855)] | 
 |  | APKEPVYPGDNATPEQMAQYAADLRRYINMLTRPRY [6463] | IC50 [4]: 0.67 nM
 | 0.079 | APLEPVYPGDNATPEQMAQYAAALRRYINMLTRPRY [compound of SEQ ID NO:277 (Ala 23, code 4055747)] | 
 | 0.13 | APLEPVYPGDNATPEQMAQYAADLRRYINFLTRPRY (ends and bridges not checked) [compound of SEQ ID NO:261 (code 4055715)] | 
 | 0.16 | APLEPEYPGDNATPEQMAQYAADLRRYINMLTRPRY (ends and bridges not checked) [compound of SEQ ID NO:276 (4055746)] | 
 | 0.17 | APLEPFYPGDNATPEQMAQYAADLRRYINMLTRPRY (ends and bridges not checked) [compound of SEQ ID NO:275 (code 4055745)] | 
 |  | APLEPVYPGDNATPEQMARYAADLRRYINMLTRPRY [6606] | IC50 [4]: 0.16 nM
 |  | APLEPVYPGDYATPEQMAQYAADLRRYINMLTRPRY [6440] | IC50 [4]: 0.26 nM
 | 0.16 | APLEPVYPGDNATPEQMAQYAADLRRYINMLTRPRF (ends and bridges not checked) [compound of SEQ ID NO:255 (code 4055708)] | 
 | 0.09 | APLEPVYPGDNATPEQMAQYAADLRRYINVLTRPRY (ends and bridges not checked) [compound of SEQ ID NO:260 (code 4055714)] | 
 |  | AAPLEPVYPGDNATPEQMAKYAADLRRYINKLTRPRY [compound of SEQ ID NO:348 (Ala 0, Lys19, Lys 30, code 4056385)] | IC50 [5]: 0.051 nM
